Reference: US10696728B2, “Polypeptides, related nucleic acids, and their uses for cell modulation and treatments” (priority 2014, dated 2020)
“Also recorded” adds a separate entry of the source.

B1: TRPV1.D5: mouse TRPV1 linked to human domain 5 of kininogen 1 (SEQ ID NO:2), fusion protein expressed from pLVX vector (protein)
chain: MEKWASLDSDESEPPAQENSCPDPPDRDPNSKPPPAKPHIFATRSRTRLFGKGDSEEASPMDCPYEEGGLASCPIITVSSVVTLQRSVDGPTCLRQTSQDSVSTGVETPPRLYDRRSIFDAVAQSNCQELESLLSFLQKSKKRLTDSEFKDPETGKTCLLKAMLNLHNGQNDTIALLLDIARKTDSLKQFVNASYTDSYYKGQTALHIAIERRNMALVTLLVENGADVQAAANGDFFKKTKGRPGFYFGELPLSLAACTNQLAIVKFLLQNSWQPADISARDSVGNTVLHALVEVADNTADNTKFVTNMYNEILILGAKLHPTLKLEELTNKKGLTPLALAASSGKIGVLAYILQREIHEPECRHLSRKFTEWAYGPVHSSLYDLSCIDTCEKNSVLEVIAYSSSETPNRHDMLLVEPLNRLLQDKWDRFVKRIFYFNFFVYCLYMIIFTTAAYYRPVEGLPPYKLNNTVGDYFRVTGEILSVSGGVYFFFRGIQYFLQRRPSLKSLFVDSYSEILFFVQSLFMLVSVVLYFSHRKEYVASMVFSLAMGWTNMLYYTRGFQQMGIYAVMIEKMILRDLCRFMFVYLVFLFGFSTAVVTLIEDGKNNSLPVESPPHKCRGSACRPGNSYNSLYSTCLELFKFTIGMGDLEFTENYDFKAVFIILLLAYVILTYILLLNMLIALMGETVNKIAQESKNIWKLQRAITILDTEKSFLKCMRKAFRSGKLLQVGFTPDGKDDFRWCFRVDEVNWTTWNTNVGIINEDPGNCEGVKRTLSFSLRSGRVSGRNWKNFALVPLLRDASTRDRHSTQPEEVQLKHYTGSLKPEDAEVFKDSMAPGEKCSRVSPPHTSMAPAQDEERDSGKEQGHTRRHDWGHEKQRKHNLGHGHKHERDQGHGHQRGHGLGHGHEQQHGLGHGHKFKLDDDLEHQGGHVLDHGHKHKHGHGHGKHKNKGKKNGKHNGWKTEHLASL
modifications: Flag tag; mouse/human chimera TRPv1.D5
B2: TRPV1: Transient Receptor Potential channel Vanilloid 1, full length, amplified from mouse spinal cord cDNA; wild-type comparison channel without D5 (protein)
chain: MEKWASLDSDESEPPAQENSCPDPPDRDPNSKPPPAKPHIFATRSRTRLFGKGDSEEASPMDCPYEEGGLASCPIITVSSVVTLQRSVDGPTCLRQTSQDSVSTGVETPPRLYDRRSIFDAVAQSNCQELESLLSFLQKSKKRLTDSEFKDPETGKTCLLKAMLNLHNGQNDTIALLLDIARKTDSLKQFVNASYTDSYYKGQTALHIAIERRNMALVTLLVENGADVQAAANGDFFKKTKGRPGFYFGELPLSLAACTNQLAIVKFLLQNSWQPADISARDSVGNTVLHALVEVADNTADNTKFVTNMYNEILILGAKLHPTLKLEELTNKKGLTPLALAASSGKIGVLAYILQREIHEPECRHLSRKFTEWAYGPVHSSLYDLSCIDTCEKNSVLEVIAYSSSETPNRHDMLLVEPLNRLLQDKWDRFVKRIFYFNFFVYCLYMIIFTTAAYYRPVEGLPPYKLNNTVGDYFRVTGEILSVSGGVYFFFRGIQYFLQRRPSLKSLFVDSYSEILFFVQSLFMLVSVVLYFSHRKEYVASMVFSLAMGWTNMLYYTRGFQQMGIYAVMIEKMILRDLCRFMFVYLVFLFGFSTAVVTLIEDGKNNSLPVESPPHKCRGSACRPGNSYNSLYSTCLELFKFTIGMGDLEFTENYDFKAVFIILLLAYVILTYILLLNMLIALMGETVNKIAQESKNIWKLQRAITILDTEKSFLKCMRKAFRSGKLLQVGFTPDGKDDFRWCFRVDEVNWTTWNTNVGIINEDPGNCEGVKRTLSFSLRSGRVSGRNWKNFALVPLLRDASTRDRHSTQPEEVQLKHYTGSLKPEDAEVFKDSMAPGEK
modifications: Flag tag; Mouse TRPV1

Experiments:
CaMKii = test: Western blot for phosphorylation of CaMKii (threonine 286) in HEK cells; assay type: cell-based; conditions: for level of p-CaMKii following RF stimulation: 36 hrs after transfection, FIG. 13
Procedure: HEK cells were transiently transfected with TRPv1.D5. 36 hrs after transfection, TRPv1.D5 cells were exposed to RF. At time points indicated, cells were lysed and protein analyzed by western blot for phosphorylation of CaMKii on threonine^286 (p-CaMKii) using phospho-specific antibodies (top panel). Control cells (0 min) had very little detectable p-CaMKii.

wild-type human TRPV1 = target: T1, wild-type human TRPV1 (Homo sapiens, UniProt Q8NER1); test: Heart defects in chick embryos with wild-type human TRPV1 exposed to capsaicin; assay type: in vivo, chicken; conditions: data not shown
T1 construct: expressed in transfected cells; host or cells: chick embryo (neural crest cells, in ovo)
T1 sequence (Q8NER1 whole entry): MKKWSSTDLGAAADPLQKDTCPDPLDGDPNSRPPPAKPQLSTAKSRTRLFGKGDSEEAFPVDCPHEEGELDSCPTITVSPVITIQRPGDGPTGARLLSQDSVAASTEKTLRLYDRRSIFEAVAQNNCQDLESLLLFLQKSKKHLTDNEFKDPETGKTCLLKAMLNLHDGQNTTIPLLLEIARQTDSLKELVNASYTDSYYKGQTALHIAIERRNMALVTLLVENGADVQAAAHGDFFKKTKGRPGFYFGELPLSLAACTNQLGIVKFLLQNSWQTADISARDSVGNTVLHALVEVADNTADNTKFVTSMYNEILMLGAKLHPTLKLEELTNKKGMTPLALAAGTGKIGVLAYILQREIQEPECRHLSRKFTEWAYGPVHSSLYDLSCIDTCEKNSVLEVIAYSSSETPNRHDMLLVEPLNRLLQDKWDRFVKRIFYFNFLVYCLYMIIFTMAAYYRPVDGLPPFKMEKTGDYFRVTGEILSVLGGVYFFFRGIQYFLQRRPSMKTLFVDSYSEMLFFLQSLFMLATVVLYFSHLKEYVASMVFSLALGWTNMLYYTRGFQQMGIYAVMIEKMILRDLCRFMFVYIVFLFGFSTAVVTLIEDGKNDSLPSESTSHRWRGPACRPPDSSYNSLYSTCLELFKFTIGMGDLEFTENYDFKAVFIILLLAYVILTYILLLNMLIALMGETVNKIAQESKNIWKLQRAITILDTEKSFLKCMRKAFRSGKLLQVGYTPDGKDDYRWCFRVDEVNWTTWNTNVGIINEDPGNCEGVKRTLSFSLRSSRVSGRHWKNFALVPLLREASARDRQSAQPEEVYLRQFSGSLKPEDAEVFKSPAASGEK

[1] = tested on: Neural Crest Cells (NCCs) in chicken embryos; test: p-CaMKii immunostaining in neural crest cells of chick embryos after in ovo electroporation; assay type: in vivo
Source text: To determine if Ca^2+ flow could be modulated in vivo, we targeted wild-type TRPV1 or TRPV1.D5 expression to pre-migratory Neural Crest Cells (NCCs) in chicken embryos. NCC migration is dependent on control of Ca^2+ influx. (See, Hutson et al. 2003) NCCs transverse long distances through the embryo to enable proper heart development (e.g. outflow tracts). We utilized RF to increase Ca^2+ flow in NCCs while these cells were migrating out of the dorsal neural tube.
TRPV1.D5 was cloned into pLVX-EF1α-IRES-mCherry vectors. Plasmid DNA was then electroporated in ovo into the dorsal neural tube of chick embryos at Hamburger-Hamilton stage 9-11 to target premigratory NCCs. Twenty four hours later, expression of mCherry was confirmed and eggs were then subjected to no RF (FIG. 14a, control) or 10 minutes of RF (FIG. 14b and FIG. 14c). Immediately afterwards, embryos were removed and fixed in paraformaldehyde. These embryos were cryosectioned and stained for mCherry to identify TRPv1.D5+ cells and phosphorylated CaMKii (p-CaMKii) using an anti-Phospho-CaMKII antibody.

ferritin = test: Co-immunoprecipitation of ferritin with Flag-tagged channel; assay type: binding, human
ferritin, sequence (P02794 whole entry): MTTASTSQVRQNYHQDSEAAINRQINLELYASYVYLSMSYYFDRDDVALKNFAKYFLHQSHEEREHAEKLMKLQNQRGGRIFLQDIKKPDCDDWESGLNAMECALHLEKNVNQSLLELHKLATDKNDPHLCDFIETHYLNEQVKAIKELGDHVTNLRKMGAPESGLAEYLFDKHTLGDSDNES

HEK-293 cells = test: GCaMP fluorescence in mCherry+ HEK-293 cells in response to RF (190 MHz Helmholtz coil) or capsaicin; assay type: cell-based; conditions: for GCaMP response to capsaicin: 1 μM capsaicin; for Ca2+ permeability following RF: RF stimulation 190 MHz, FIG. 12
Source text: A Helmholtz coil (190 MHz) was placed over a petri dish loaded with HEK-293 cells. RF power was supplied by a broadband (0-400 MHz) signal generator and amplified using a 10-W linear amplifier. We used GCaMP as an intracellular calcium indicator whose intensity is proportional to the amount of bound calcium. Using widefield fluorescent microscopy, we measured the change in GCaMP fluorescence in mCherry+ cells expressing TRPV1 and TRPV1.D5 in response to RF stimulation.

human ferritin = test: Subcellular distribution of ferritin (FTH1-mCherry) in HEK-293 cells, confocal imaging; assay type: cell-based; conditions: co-transfection with FTH1-mCherry in HEK-293, FIG. 9a/9b
human ferritin, sequence (P02794 whole entry, the tested form may be a part): as the sequence (P02794 whole entry) above
Source text: TRPV1.D5 redistributes endogenous ferritin to membranes. To visualize subcellular distribution of ferritin, we fused human ferritin with mCherry (FTH1-mCherry) at the C-terminal. Expression of FTH1-mCherry in HEK-293 yielded normal cytoplasmic distribution.

HEK cells = test: GCaMP fluorescence (Ca2+ influx) in HEK cells at three levels of applied RF field; assay type: cell-based; conditions: for increase of green fluorescence emitted by GCAMP, all cells (both green and red) / increase of green fluorescence emitted by GCAMP, cells that visually became brighter: FIG. 11
Procedure: Expression of TRPv1.D5 in HEK cells: HEK cell expression was performed using transient transfection. Briefly, 1 μg of plasmid was mixed with Lipofectamine LTX with PLUS reagent (Life Technologies) following the manufacturer instructions. Expression was confirmed by standard western blot technique. Once expression was confirmed, pLVX.TRPv1.D5 was co-transfected with a plasmid containing GCaMP6 (addgene). GCaMP6 is a genetically encoded Calcium indicator. Its green fluorescence increases in the presence of increasing amounts of intracellular calcium. Green fluorescence was analyzed in HEK cells using MetaFluor Analyst Software (Molecular Devices) following manufacture instructions. Transfected cells were analyzed prior to RF exposure and during 10 minutes of RF exposure, as discussed below.
The intensity of red fluorescence protein (RFP) indicates the cells that expressed TRPV1.D5 with mCherry.
FIG. 11 quantifies the fluorescence intensity at three levels of applied electromagnetic fields. Red fluorescence emitted by mCherry (“Red Fluorescence”) increased by less than 6.5% at the end of experiments. Green fluorescence (GCaMP3) emitted by GCAMP in cells without TRPV1.D5 (“GCAMP-TRPV1 (green only, not red)”) increased by less than 6.9%.

chick embryos = test: Congenital heart defects in chick embryos with channel expression in neural crest cells; assay type: in vivo, chicken

Row | Molecule | GCaMP response to capsaicin (HEK-293 cells) | Ca2+ permeability following RF (HEK-293 cells) | subcellular distribution of FTH1-mCherry (ferritin) (human ferritin) | increase of green fluorescence emitted by GCAMP, all cells (both green and red) (HEK cells; high RF (132 G)) [%] | increase of green fluorescence emitted by GCAMP, cells that visually became brighter (HEK cells; high RF (132 G)) [%] | increase of green fluorescence emitted by GCAMP, all cells (both green and red) (HEK cells; low RF (62 G)) [%] | increase of green fluorescence emitted by GCAMP, cells that visually became brighter (HEK cells; low RF (62 G)) [%] | further results
1 | COc1cc(CNC(=O)CCCC/C=C/C(C)C)ccc1O [capsaicin, reference compound] |  |  |  |  |  |  |  | phosphorylation of CaMKii (CaMKii; 1 μm Capsaicin (Cap+), TRPv1.D5 transfected HEK cells): induced phosphorylation of CaMKii; replication of the defects caused by TRPV1.D5+RF (wild-type human TRPV1): replicated
2 | B1 | responded equally well | induced a transient increase in Ca^2+ permeability; also recorded: increases Ca^2+ ion modulation | redistributed FTH1-mCherry to cell membranes | 22.2 | 151.3 | 9.0 | 48.3 | p-CaMKii in neural crest cells ([1]; 10 minutes of RF, FIG. 14b/14c): clear co-localization of the mutant channel and p-CaMKii; p-CaMKii in neural crest cells ([1]; no RF (control animals), FIG. 14a): did not observe detectable levels of p-CaMKii; co-immunoprecipitation of Ferritin-mCherry (ferritin; Flag-labelled channel, FIG. 9e, listed as Flag-TRPV1.D5): co-immunoprecipitates; pull-down of ferritin-mCherry and endogenous ferritin by immunoprecipitation (ferritin; data not shown): successfully pulled down both ferritin-mCherry and endogenous ferritin; time of peak p-CaMKii level following RF stimulation (CaMKii; TRPv1.D5+ HEK cells): 10 min; level of p-CaMKii following RF stimulation (CaMKii; TRPv1.D5+ HEK cells): induces p-CaMKii; level of p-CaMKii following RF stimulation (CaMKii; TRPv1.D5+ HEK cells, listed as TRPv1.D5): increases; GCAMP3 intensity on application of RF/EM fields (HEK cells; with vs without RF, FIG. 10): increased in the presence of RF; also recorded: increased GCAMP3 intensity; heart defects on RF activation in cardiac neural crest cells (chick embryos; RF for 10 minutes, FIG. 15): results in heart defects; embryos that developed congenital heart defects (VSD, double outlet right ventricle, transposition of great vessels) (chick embryos; RF-treated, day 10 post experiments): ~60%; development of heart defects (chick embryos; non-RF treated): nor the non-RF treated TRPV1.D5 embryos developed any defects
3 | B2 | responded equally well | only TRPV1.D5 induced a transient increase | cytoplasmic distribution was not altered | 22.2 | 151.3 | 9.0 | 48.3 | development of heart defects (chick embryos; with or without RF): Neither the TRPV1 embryos (with or without RF) nor the non-RF treated TRPV1.D5 embryos developed any defects
